For the assay, the target named is Recombinant human endostatin (human) (UniProt P39060). Description: SPR. On the technique in general: SPR reads the build-up and loss of mass on a sensor chip optically.
Sequence of UniProt P39060 (P39060 1572-1754): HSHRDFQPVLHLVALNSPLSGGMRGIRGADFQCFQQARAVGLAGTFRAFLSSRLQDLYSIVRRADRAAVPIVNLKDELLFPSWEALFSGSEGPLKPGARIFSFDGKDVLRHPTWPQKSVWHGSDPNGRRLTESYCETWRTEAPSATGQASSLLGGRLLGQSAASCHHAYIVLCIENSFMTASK

Consider “α3β1 integrin (Millipore) (from UniProt P26006 33-1051; P05556 21-728) (complex)”, for which the Kd (usually the constant that tells how readily two partners part at equilibrium) was found to be 9 nM.
